The text below walks through data of publication PMC5700373, “Repression of YdaS Toxin Is Mediated by Transcriptional Repressor RacR in the Cryptic rac Prophage of Escherichia coli K-12”.

The target in data set [1] is T1, RacR (Escherichia coli K-12) (UniProt P76062).
T1 sequence: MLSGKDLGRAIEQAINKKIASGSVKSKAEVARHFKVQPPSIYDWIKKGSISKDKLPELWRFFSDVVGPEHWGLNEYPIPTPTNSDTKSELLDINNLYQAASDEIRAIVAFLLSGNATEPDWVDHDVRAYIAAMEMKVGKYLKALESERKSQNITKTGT
In words: EMSA. To be noted: EMSA: 10x buffer 100 mM Tris pH 8, 10 mM EDTA, 1 M NaCl, 1 mM DTT, 50% glycerol, 0.1 mg/ml BSA (presumably 1x final), room temperature 1 h, SYBR green stain. ….

Another data set deals with T2, RacR (Escherichia coli K-12, UniProt P76062 1-158).
T2 sequence: T1 sequence
As to the kind of experiment: EMSA; 23.5 nM DNA, RacR up to 67.5 nM; single complex; EMSA: 10x buffer 100 mM Tris pH 8, 10 mM EDTA, 1 M NaCl, 1 mM DTT, 50% glycerol, 0.1 mg/ml BSA (presumably 1x final), room temperature 1 h, SYBR green stain. TSA: 50 mM Tris pH 8.5, 500 mM NaCl, 5% glycerol, 20-95 C. The following applies: protein: recombinant; tags: C-terminal His (pET28a); chain copies: 2; blunt. (In general: Mobility shift assays separate free from complexed probe on a gel.)

Turning to “TGCTTAATATTCTCCTATGCGCATTACATTAGGCAATCCCTACCCTTACTGCATTAGGCACAGCCTATTGACAATTGCGTTAGGCGTCGCCTAATATTTCTGTGTGTTTTTGGAGTTCATTCG (double strand) [123-bp racR-ydaS IGR]”, the binding entry in data set [1] is given as “binds”.

B1: 49-bp region upstream of ydaS (dsDNA)
DNA 1: CGAATGAACTCCAAAAACACACAGAAATATTAGGCGACGCCTAACGCAA
DNA 2: TTGCGTTAGGCGTCGCCTAATATTTCTGTGTGTTTTTGGAGTTCATTCG
Turning to B1, the binding result in the data set with RacR is “binds”.
